# Source: PMC9688318, “Construction of a Versatile, Programmable RNA-Binding Protein Using Designer PPR Proteins and Its Application for Splicing Control in Mammalian Cells”
# T1: PPR2.0 t11 (synthetic)
# T1 chain: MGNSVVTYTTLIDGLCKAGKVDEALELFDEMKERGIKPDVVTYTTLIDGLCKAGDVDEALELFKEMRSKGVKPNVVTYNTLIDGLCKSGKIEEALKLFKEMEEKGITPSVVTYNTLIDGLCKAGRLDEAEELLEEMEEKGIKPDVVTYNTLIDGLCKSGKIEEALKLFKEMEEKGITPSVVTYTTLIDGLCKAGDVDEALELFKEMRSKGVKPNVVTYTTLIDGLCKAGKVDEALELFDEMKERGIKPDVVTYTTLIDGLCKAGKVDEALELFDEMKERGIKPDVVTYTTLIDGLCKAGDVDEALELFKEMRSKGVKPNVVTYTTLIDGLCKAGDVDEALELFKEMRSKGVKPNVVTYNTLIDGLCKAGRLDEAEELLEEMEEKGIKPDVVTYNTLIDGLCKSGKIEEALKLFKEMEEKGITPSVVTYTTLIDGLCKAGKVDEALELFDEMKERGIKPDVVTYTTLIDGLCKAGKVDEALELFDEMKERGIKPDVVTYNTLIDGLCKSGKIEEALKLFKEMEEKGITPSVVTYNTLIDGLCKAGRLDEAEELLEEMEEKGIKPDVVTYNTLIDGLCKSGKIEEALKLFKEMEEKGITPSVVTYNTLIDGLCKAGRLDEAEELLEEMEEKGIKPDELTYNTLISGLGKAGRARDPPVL
# T2: PPR2.0 t8 (synthetic)
# T2 chain: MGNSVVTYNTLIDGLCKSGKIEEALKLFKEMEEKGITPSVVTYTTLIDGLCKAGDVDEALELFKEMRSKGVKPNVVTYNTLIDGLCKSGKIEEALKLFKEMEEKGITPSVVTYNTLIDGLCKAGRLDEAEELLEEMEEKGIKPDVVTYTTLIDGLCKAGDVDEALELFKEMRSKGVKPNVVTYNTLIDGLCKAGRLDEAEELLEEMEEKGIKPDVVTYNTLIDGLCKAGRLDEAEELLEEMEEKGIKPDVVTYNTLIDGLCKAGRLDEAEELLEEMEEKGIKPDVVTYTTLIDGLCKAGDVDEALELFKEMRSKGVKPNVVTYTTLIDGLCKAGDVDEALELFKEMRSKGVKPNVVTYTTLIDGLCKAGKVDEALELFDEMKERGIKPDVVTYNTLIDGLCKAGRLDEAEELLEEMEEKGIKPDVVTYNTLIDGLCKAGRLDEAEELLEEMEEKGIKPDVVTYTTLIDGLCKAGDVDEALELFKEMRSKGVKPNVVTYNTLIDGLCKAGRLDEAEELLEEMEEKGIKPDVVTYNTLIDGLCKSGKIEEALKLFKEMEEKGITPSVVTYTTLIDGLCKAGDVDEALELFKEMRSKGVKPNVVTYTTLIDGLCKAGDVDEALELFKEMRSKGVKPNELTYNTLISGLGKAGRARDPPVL
# T3: PPR2.0 t5 (synthetic)
# T3 chain: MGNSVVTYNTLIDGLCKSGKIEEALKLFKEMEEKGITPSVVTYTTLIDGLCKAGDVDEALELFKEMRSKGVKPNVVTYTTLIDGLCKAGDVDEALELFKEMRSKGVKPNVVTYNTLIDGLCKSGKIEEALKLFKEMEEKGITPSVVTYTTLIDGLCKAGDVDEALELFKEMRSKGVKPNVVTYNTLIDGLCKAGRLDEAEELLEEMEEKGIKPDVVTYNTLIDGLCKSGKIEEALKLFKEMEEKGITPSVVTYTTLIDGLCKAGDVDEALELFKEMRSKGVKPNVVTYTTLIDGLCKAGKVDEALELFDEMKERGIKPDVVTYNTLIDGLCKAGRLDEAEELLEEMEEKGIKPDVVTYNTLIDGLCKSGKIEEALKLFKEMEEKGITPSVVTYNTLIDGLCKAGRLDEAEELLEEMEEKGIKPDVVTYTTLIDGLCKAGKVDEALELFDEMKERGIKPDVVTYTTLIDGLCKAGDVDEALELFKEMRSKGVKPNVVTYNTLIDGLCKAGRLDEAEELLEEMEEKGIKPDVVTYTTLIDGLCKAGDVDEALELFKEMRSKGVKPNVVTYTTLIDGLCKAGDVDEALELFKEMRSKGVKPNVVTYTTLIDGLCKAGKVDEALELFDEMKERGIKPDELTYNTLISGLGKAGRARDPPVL
# T4: PPR2.0 t15 (synthetic)
# T4 chain: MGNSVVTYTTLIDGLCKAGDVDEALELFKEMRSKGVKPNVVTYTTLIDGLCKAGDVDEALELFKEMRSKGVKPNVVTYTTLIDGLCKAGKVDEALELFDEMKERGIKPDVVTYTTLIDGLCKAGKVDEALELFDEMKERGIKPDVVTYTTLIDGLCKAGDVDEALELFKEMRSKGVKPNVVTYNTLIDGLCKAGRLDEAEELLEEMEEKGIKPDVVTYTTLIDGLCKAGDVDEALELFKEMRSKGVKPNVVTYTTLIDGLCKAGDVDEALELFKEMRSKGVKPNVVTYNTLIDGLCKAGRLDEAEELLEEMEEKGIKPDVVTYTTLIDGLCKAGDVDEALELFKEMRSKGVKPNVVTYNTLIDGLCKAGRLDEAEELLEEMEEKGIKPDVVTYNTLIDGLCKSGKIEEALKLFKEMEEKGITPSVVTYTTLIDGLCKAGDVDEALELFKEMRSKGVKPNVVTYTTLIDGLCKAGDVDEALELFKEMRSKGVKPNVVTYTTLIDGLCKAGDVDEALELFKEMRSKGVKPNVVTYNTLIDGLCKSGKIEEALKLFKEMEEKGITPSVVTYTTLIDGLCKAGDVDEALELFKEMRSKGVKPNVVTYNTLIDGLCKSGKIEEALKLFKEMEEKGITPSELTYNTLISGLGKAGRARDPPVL
# T5: PPR2.0 t4 (synthetic)
# T5 chain: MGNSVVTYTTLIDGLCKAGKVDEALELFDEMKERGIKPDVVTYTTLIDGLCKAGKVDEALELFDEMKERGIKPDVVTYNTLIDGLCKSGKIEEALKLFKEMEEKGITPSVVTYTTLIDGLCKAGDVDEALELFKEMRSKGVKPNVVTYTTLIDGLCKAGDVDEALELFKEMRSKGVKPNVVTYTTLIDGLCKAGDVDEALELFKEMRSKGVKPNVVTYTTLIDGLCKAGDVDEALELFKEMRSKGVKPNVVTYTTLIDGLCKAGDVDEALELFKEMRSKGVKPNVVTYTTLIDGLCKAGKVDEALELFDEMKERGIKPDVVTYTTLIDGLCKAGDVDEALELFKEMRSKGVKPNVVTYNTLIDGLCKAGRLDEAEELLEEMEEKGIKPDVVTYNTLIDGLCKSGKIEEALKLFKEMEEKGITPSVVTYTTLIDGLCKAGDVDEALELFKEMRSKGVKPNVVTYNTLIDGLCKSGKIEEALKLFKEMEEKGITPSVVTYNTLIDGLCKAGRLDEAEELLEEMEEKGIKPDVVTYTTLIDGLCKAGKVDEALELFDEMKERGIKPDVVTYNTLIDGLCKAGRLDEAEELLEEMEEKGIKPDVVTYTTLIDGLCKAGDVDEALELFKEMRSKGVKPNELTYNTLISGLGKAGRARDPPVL
# T6: PPR2.0 t14 (synthetic)
# T6 chain: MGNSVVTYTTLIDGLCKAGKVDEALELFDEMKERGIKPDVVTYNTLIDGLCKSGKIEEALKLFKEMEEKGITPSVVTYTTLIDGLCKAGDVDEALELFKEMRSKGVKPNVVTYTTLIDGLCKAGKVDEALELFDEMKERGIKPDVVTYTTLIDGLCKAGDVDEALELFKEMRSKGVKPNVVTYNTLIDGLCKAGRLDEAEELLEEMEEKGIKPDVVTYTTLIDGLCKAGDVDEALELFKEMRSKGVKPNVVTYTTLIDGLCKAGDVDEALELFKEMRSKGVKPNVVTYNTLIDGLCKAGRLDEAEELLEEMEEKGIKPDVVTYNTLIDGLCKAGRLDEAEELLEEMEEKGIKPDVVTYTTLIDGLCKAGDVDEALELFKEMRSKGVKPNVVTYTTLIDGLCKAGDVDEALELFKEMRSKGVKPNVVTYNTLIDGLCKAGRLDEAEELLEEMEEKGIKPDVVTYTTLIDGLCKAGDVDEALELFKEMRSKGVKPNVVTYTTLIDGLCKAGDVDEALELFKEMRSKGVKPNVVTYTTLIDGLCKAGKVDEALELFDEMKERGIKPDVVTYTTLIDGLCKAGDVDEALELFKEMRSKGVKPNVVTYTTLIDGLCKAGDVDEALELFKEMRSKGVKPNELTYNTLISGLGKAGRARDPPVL
# How the values were obtained:
# PPR2.0 t11 [1] = biological target: T1, PPR2.0 t11; experiment: 20 mM Tris-HCl pH 8.0, 150 mM NaCl, 0.5% NP-40, 1 mM DTT; conditions: tags: N-terminal NanoLuc, C-terminal His6, kept; label: biotin
# PPR2.0 t11 [2] = biological target: T1, PPR2.0 t11; experiment: EMSA; 20 mM Tris-HCl pH 8.0, 150 mM NaCl, 0.5% NP-40, 1 mM DTT, 1 mM EDTA; 20 nM RNA; conditions: tags: N-terminal SBP, C-terminal His6, kept; label: biotin
# PPR2.0 t8 [3] = biological target: T2, PPR2.0 t8; experiment: 20 mM Tris-HCl pH 8.0, 150 mM NaCl, 0.5% NP-40, 1 mM DTT; conditions: tags: N-terminal NanoLuc, C-terminal His6, kept; label: biotin
# PPR2.0 t8 [4] = biological target: T2, PPR2.0 t8; experiment: EMSA; 20 mM Tris-HCl pH 8.0, 150 mM NaCl, 0.5% NP-40, 1 mM DTT, 1 mM EDTA; 20 nM RNA; conditions: tags: N-terminal SBP, C-terminal His6, kept; label: biotin
# PPR2.0 t5 [5] = biological target: T3, PPR2.0 t5; experiment: 20 mM Tris-HCl pH 8.0, 150 mM NaCl, 0.5% NP-40, 1 mM DTT; conditions: tags: N-terminal NanoLuc, C-terminal His6, kept; label: biotin
# PPR2.0 t5 [6] = biological target: T3, PPR2.0 t5; experiment: EMSA; 20 mM Tris-HCl pH 8.0, 150 mM NaCl, 0.5% NP-40, 1 mM DTT, 1 mM EDTA; 20 nM RNA; conditions: tags: N-terminal SBP, C-terminal His6, kept; label: biotin
# PPR2.0 t15 [7] = biological target: T4, PPR2.0 t15; experiment: 20 mM Tris-HCl pH 8.0, 150 mM NaCl, 0.5% NP-40, 1 mM DTT; conditions: tags: N-terminal NanoLuc, C-terminal His6, kept; label: biotin
# PPR2.0 t15 [8] = biological target: T4, PPR2.0 t15; experiment: EMSA; 20 mM Tris-HCl pH 8.0, 150 mM NaCl, 0.5% NP-40, 1 mM DTT, 1 mM EDTA; 20 nM RNA; conditions: tags: N-terminal SBP, C-terminal His6, kept; label: biotin
# PPR2.0 t4 [9] = biological target: T5, PPR2.0 t4; experiment: 20 mM Tris-HCl pH 8.0, 150 mM NaCl, 0.5% NP-40, 1 mM DTT; conditions: tags: N-terminal NanoLuc, C-terminal His6, kept; label: biotin
# PPR2.0 t4 [10] = biological target: T5, PPR2.0 t4; experiment: EMSA; 20 mM Tris-HCl pH 8.0, 150 mM NaCl, 0.5% NP-40, 1 mM DTT, 1 mM EDTA; 20 nM RNA; conditions: tags: N-terminal SBP, C-terminal His6, kept; label: biotin
# PPR2.0 t14 [11] = biological target: T6, PPR2.0 t14; experiment: 20 mM Tris-HCl pH 8.0, 150 mM NaCl, 0.5% NP-40, 1 mM DTT; conditions: tags: N-terminal NanoLuc, C-terminal His6, kept; label: biotin
# PPR2.0 t14 [12] = biological target: T6, PPR2.0 t14; experiment: EMSA; 20 mM Tris-HCl pH 8.0, 150 mM NaCl, 0.5% NP-40, 1 mM DTT, 1 mM EDTA; 20 nM RNA; conditions: tags: N-terminal SBP, C-terminal His6, kept; label: biotin
binder,measurement,setting,value
GACAUGCGACUCAGGAAUCGGCUCUGACUG (ssRNA) [Probe_t11],binding signal,PPR2.0 t11 [1],"3.78e+07 RBP-ELISA luminescence, CPS"
same,Kd,PPR2.0 t11 [2],63.3 nM
GACAUGCCACUAUUUAAGUUAUCAAGACUG (ssRNA) [Probe_t8],binding signal,PPR2.0 t8 [3],"4.7e+07 RBP-ELISA luminescence, CPS"
same,Kd,PPR2.0 t8 [4],1.95 nM
GACAUGCCAACAUCAGUCUGAUAAGGACUG (ssRNA) [Probe_t5],binding signal,PPR2.0 t5 [5],"1.67e+07 RBP-ELISA luminescence, CPS"
same,Kd,PPR2.0 t5 [6],167 nM
GACAUGCAAGGAUAAUAUCAAACACGACUG (ssRNA) [Probe_t15],binding signal,PPR2.0 t15 [7],"2.84e+07 RBP-ELISA luminescence, CPS"
same,Kd,PPR2.0 t15 [8],41 nM
GACAUGCGGCAAAAAGAUCACUGUAGACUG (ssRNA) [Probe_t4],binding signal,PPR2.0 t4 [9],"5.98e+07 RBP-ELISA luminescence, CPS"
same,Kd,PPR2.0 t4 [10],2.57 nM
GACAUGCGCAGAUAAUUAAUAAGAAGACUG (ssRNA) [Probe_t14],binding signal,PPR2.0 t14 [11],"1.33e+07 RBP-ELISA luminescence, CPS"
same,Kd,PPR2.0 t14 [12],197 nM
